Article doi:10.1101/2022.04.03.486873 (bioRxiv, 2022)

T1: UPF2L (120-1227) (UniProt Q9HAU5 120-1227)
T1 sequence: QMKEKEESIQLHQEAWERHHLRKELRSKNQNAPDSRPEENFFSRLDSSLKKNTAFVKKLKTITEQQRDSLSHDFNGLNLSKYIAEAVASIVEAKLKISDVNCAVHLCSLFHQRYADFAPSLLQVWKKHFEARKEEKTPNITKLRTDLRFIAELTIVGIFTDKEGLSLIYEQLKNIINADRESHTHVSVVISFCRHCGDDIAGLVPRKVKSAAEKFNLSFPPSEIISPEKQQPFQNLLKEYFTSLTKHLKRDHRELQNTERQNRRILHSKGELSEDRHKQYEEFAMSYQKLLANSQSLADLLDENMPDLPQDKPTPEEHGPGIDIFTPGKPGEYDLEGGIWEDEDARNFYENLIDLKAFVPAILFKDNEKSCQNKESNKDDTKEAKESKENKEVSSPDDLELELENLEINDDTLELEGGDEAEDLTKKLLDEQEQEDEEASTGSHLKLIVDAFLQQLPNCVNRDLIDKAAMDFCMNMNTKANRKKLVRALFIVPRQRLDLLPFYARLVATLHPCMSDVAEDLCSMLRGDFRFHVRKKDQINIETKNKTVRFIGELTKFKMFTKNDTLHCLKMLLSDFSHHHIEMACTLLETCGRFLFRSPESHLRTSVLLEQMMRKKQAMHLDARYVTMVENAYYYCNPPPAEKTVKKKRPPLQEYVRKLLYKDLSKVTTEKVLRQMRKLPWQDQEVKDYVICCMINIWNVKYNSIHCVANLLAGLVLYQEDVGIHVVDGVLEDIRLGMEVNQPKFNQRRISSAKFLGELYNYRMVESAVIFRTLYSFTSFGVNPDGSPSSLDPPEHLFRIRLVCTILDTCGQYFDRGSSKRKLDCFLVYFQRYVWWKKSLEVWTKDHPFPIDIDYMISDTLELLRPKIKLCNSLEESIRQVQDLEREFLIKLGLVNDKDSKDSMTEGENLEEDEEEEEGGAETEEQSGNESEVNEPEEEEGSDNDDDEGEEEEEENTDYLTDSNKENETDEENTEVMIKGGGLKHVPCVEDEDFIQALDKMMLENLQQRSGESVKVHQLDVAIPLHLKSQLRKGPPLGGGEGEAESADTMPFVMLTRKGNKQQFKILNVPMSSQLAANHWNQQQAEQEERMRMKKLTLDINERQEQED

B1: UPF3B-FL (residues 1-470) (natural protein)
chain: MKEEKEHRPKEKRVTLLTPAGATGSGGGTSGDSSKGEDKQDRNKEKKEALSKVVIRRLPPTLTKEQLQEHLQPMPEHDYFEFFSNDTSLYPHMYARAYINFKNQEDIILFRDRFDGYVFLDNKGQEYPAIVEFAPFQKAAKKKTKKRDTKVGTIDDDPEYRKFLESYATDNEKMTSTPETLLEEIEAKNRELIAKKTTPLLSFLKNKQRMREEKREERRRREIERKRQREEERRKWKEEEKRKRKDIEKLKKIDRIPERDKLKDEPKIKLLKKPEKGDEKELDKREKAKKLDKENLSDERASGQSCTLPKRSDSELKDEKPKRPEDESGRDYREREREYERDQERILRERERLKRQEEERRRQKERYEKEKTFKRKEEEMKKEKDTLRDKGKKAESTESIGSSEKTEKKEEVVKRDRIRNKDRPAMQLYQPGARSRNRLCPPDDSTKSGDSAAERKQESGISHRKEGGEE
B2: Avi-UPF2-MIF4GIII (biotinylated) (domain or fragment)
chain: EKTVKKKRPPLQEYVRKLLYKDLSKVTTEKVLRQMRKLPWQDQEVKDYVICCMINIWNVKYNSIHCVANLLAGLVLYQEDVGIHVVDGVLEDIRLGMEVNQPKFNQRRISSAKFLGELYNYRMVESAVIFRTLYSFTSFGVNPDGSPSSLDPPEHLFRIRLVCTILDTCGQYFDRGSSKRKLDCFLVYFQRYVWWKKSLEVWTKDHPFPIDIDYMISDTLELLRPKIKLCNSLEESIRQVQDLEREFLIKLGLVNDKDSKDSMTEGENLEEDEEEEEGGAETEEQSGNESEVNE
modifications: biotin on the Avi tag (BirA)

The molecules below were run against T1, UPF2L (120-1227) (assay: native gel or EMSA).

Row | Molecule | binding result
1 | B1 | binds

The molecules below were run against B2 (assay: SPR).

Row | Molecule | Kd [nM]
2 | UPF3B-41-189 (domain or fragment) DRNKEKKEALSKVVIRRLPPTLTKEQLQEHLQPMPEHDYFEFFSNDTSLYPHMYARAYINFKNQEDIILFRDRFDGYVFLDNKGQEYPAIVEFAPFQKAAKKKTKKRDTKVGTIDDDPEYRKFLESYATDNEKMTSTPETLLEEIEAKN | 3.6
3 | UPF3B-41-189 Y160A (domain or fragment) DRNKEKKEALSKVVIRRLPPTLTKEQLQEHLQPMPEHDYFEFFSNDTSLYPHMYARAYINFKNQEDIILFRDRFDGYVFLDNKGQEYPAIVEFAPFQKAAKKKTKKRDTKVGTIDDDPEARKFLESYATDNEKMTSTPETLLEEIEAKN | 88
4 | UPF3B-41-189 Y160D (domain or fragment) DRNKEKKEALSKVVIRRLPPTLTKEQLQEHLQPMPEHDYFEFFSNDTSLYPHMYARAYINFKNQEDIILFRDRFDGYVFLDNKGQEYPAIVEFAPFQKAAKKKTKKRDTKVGTIDDDPEDRKFLESYATDNEKMTSTPETLLEEIEAKN | 140
5 | UPF3B-41-189 Y167A (domain or fragment) DRNKEKKEALSKVVIRRLPPTLTKEQLQEHLQPMPEHDYFEFFSNDTSLYPHMYARAYINFKNQEDIILFRDRFDGYVFLDNKGQEYPAIVEFAPFQKAAKKKTKKRDTKVGTIDDDPEYRKFLESAATDNEKMTSTPETLLEEIEAKN | 3.3
6 | UPF3B-41-189 F163A (domain or fragment) DRNKEKKEALSKVVIRRLPPTLTKEQLQEHLQPMPEHDYFEFFSNDTSLYPHMYARAYINFKNQEDIILFRDRFDGYVFLDNKGQEYPAIVEFAPFQKAAKKKTKKRDTKVGTIDDDPEYRKALESYATDNEKMTSTPETLLEEIEAKN | 90
7 | UPF3B-41-189 Y167D (domain or fragment) DRNKEKKEALSKVVIRRLPPTLTKEQLQEHLQPMPEHDYFEFFSNDTSLYPHMYARAYINFKNQEDIILFRDRFDGYVFLDNKGQEYPAIVEFAPFQKAAKKKTKKRDTKVGTIDDDPEYRKFLESDATDNEKMTSTPETLLEEIEAKN | 7.4
8 | UPF3B-41-189 Y160D+Y167D (domain or fragment) DRNKEKKEALSKVVIRRLPPTLTKEQLQEHLQPMPEHDYFEFFSNDTSLYPHMYARAYINFKNQEDIILFRDRFDGYVFLDNKGQEYPAIVEFAPFQKAAKKKTKKRDTKVGTIDDDPEDRKFLESDATDNEKMTSTPETLLEEIEAKN | ~130
9 | UPF3B-41-189 Y160A+Y167A (domain or fragment) DRNKEKKEALSKVVIRRLPPTLTKEQLQEHLQPMPEHDYFEFFSNDTSLYPHMYARAYINFKNQEDIILFRDRFDGYVFLDNKGQEYPAIVEFAPFQKAAKKKTKKRDTKVGTIDDDPEARKFLESAATDNEKMTSTPETLLEEIEAKN | ~130
10 | UPF3B-41-143 (domain or fragment) DRNKEKKEALSKVVIRRLPPTLTKEQLQEHLQPMPEHDYFEFFSNDTSLYPHMYARAYINFKNQEDIILFRDRFDGYVFLDNKGQEYPAIVEFAPFQKAAKKK | 720
11 | UPF3A-58-206-Iso1 (domain or fragment) KPREEKRTALSKVVIRRLPPGLTKEQLEEQLRPLPAHDYFEFFAADLSLYPHLYSRAYINFRNPDDILLFRDRFDGYIFLDSKGLEYPAVVEFAPFQKIAKKKLRKKDAKTGSIEDDPEYKKFLETYCVEEEKTSANPETLLGEMEAKT | 0.22

What follows are molecules tested against B1 (assay: SPR).

Row | Molecule | Kd [nM]
12 | B2 | 0.47

These molecules were tested against Avi-UPF2-MIF4GIII (biotinylated) (UniProt Q9HAU5) (assay: SPR).

Row | Molecule | Kd [nM]
13 | full-length UPF3A-WT (from UniProt Q9H1J1 1-476) (natural protein) | 0.048
